This note sets out measurements from patent US20180305414A1.

Residue numbers refer to the chain shown, from its start.

Experiment [1] addresses Fab prepared by papain treatment of human IgG (human). As to the kind of experiment: binding capacity; Capto L resin, 20 mg/mL human Fab, acid elution, A280.
Experiment [2] addresses human IgG (available from the Chemo-Sero-Therapeutic Research Institute) (human). Briefly: binding capacity; Capto L resin, human IgG, acid elution, A280.
Experiment [3] has the same target. As to the kind of experiment: binding capacity; binder immobilised on agarose gel, human IgG, acid elution, A280.
Experiment [4] addresses Fab prepared by papain treatment of human IgG (human). Briefly: binding capacity; binder immobilised on agarose gel, 20 mg/mL human Fab, acid elution, A280.
Experiment [5] has as its target human IgG (available from the Chemo-Sero-Therapeutic Research Institute) (human). As to the kind of experiment: binding capacity; binder immobilised on agarose gel, human IgG.
For experiment [6] the target is unchanged. As to the kind of experiment: binding capacity against Capto L.
For experiment [7], the target named is Fab prepared by papain treatment of human IgG (human). As to the kind of experiment: binding capacity against Capto L.
Experiment [8] has as its target human IgG (available from the Chemo-Sero-Therapeutic Research Institute) (human). Briefly: binding capacity; binder immobilised on agarose gel, 40 mg/mL human IgG, acid elution, A280.

“Capto L (GE Healthcare KK) having a tetramer (Protein L) with the native sequence immobilized thereon” showed a Fab Binding Capacity in experiment [1] of 30.9 mg/mL gel. The molecule further registered an IgG Binding Capacity in experiment [2] of 43.6 mg/mL gel.

B1: hexameric multidomain polypeptide PL-624 (six linked modified domains of PL-024) (designed binder)
chain: AQHDEAGLALETPEEPREEVTIRVNLIFADGRTQTAEFRGTFEEATAEAYRYADLLARVNGEYTADLEDGGYTINIRFAGALETPEEPREEVTIRVNLIFADGRTQTAEFRGTFEEATAEAYRYADLLARVNGEYTADLEDGGYTINIRFAGALETPEEPREEVTIRVNLIFADGRTQTAEFRGTFEEATAEAYRYADLLARVNGEYTADLEDGGYTINIRFAGALETPEEPREEVTIRVNLIFADGRTQTAEFRGTFEEATAEAYRYADLLARVNGEYTADLEDGGYTINIRFAGALETPEEPREEVTIRVNLIFADGRTQTAEFRGTFEEATAEAYRYADLLARVNGEYTADLEDGGYTINIRFAGALETPEEPREEVTIRVNLIFADGRTQTAEFRGTFEEATAEAYRYADLLARVNGEYTADLEDGGYTINIRFAGALPSKSKKILKEAKKLNKAQAPKKKK
On to B1, for which the IgG Binding Capacity in experiment [3] was found to be 95.8 mg/mL gel. Besides, the Fab Binding Capacity in experiment [4] stood at 75.9 mg/mL gel. In addition, the human IgG binding capacity relative to PL-024 in experiment [5] was 151%. For the same molecule, the amount of bound IgG relative to Capto L in experiment [6] was determined as 2.2 times. In experiment [7], this molecule registered an amount of bound Fab fragment relative to Capto L of 2.4 times.

B2: chimeric protein PL-014 containing immunoglobulin-binding domain 4 of Protein L (designed binder)
chain: MAQHDEAGLALETPEEPKEEVTIKVNLIFADGKTQTAEFKGTFEEATAEAYRYADLLAKVNGEYTADLEDGGYTINIKFAGALPSKSKKILKEAKKLNKAQAPKKKK
Consider B2, for which the figures for the IgG Binding Capacity in experiment [3] and in experiment [8] were 57 mg/mL gel and 57.4 mg/mL gel, respectively.

B3: modified product PL-024 of immunoglobulin-binding domain 4 (designed binder)
chain: B2 chain with K18R, K24R, K33R, K40R, K59R, K78R
In experiment [3], B3 yielded an IgG Binding Capacity of 63.4 mg/mL gel. The same molecule registered an increase of binding capacity against PL-014 in experiment [5] of 11%.

B4: modified product PL-060 of immunoglobulin-binding domain 4 (designed binder)
chain: B2 chain with T13K, K18T, K24R, K33R
In experiment [3], B4 had an IgG Binding Capacity of 57.6 mg/mL gel.

B5: modified product PL-061 of immunoglobulin-binding domain 3 (designed binder)
chain: B2 chain with K18R, K24R, K33R, T34I, K40R, E49K, R52A, D55N, V60E, Y73N
In experiment [3], B5 showed an IgG Binding Capacity of 59.8 mg/mL gel.

B6: modified product PL-055 of immunoglobulin-binding domain 4 (designed binder)
chain: B2 chain with T13K, K18R, K24R, K33F
With B6, the IgG Binding Capacity in experiment [3] came out at 57.3 mg/mL gel.

B7: chimeric protein PL-022 containing immunoglobulin-binding domain 2 of Protein L (designed binder)
chain: B2 chain with T13K, E49K, R52A, V60E, Y73N
B7 yielded an IgG Binding Capacity in experiment [8] of 53.3 mg/mL gel.

B8: modified product PL-053 of immunoglobulin-binding domain 4 (designed binder)
chain: B2 chain with T13K, K18R, K24R, K33E
As for B8, the IgG Binding Capacity in experiment [3] came out at 55.9 mg/mL gel.

B9: modified product PL-026 of immunoglobulin-binding domain 4 (designed binder)
chain: B2 chain with T13K, K18R, K24R
Take B9: the IgG Binding Capacity in experiment [3] is 57.8 mg/mL gel.

B10: modified product PL-058 of immunoglobulin-binding domain 4 (designed binder)
chain: B2 chain with T13K, K18R, K33R, K40R
For B10, in experiment [3], the IgG Binding Capacity is 58.6 mg/mL gel.

B11: modified product PL-056 of immunoglobulin-binding domain 4 (designed binder)
chain: B2 chain with T13K, K18R, K24R, K33A
In experiment [3], B11 gave an IgG Binding Capacity of 61.6 mg/mL gel.

B12: modified product PL-027 of immunoglobulin-binding domain 4 (designed binder)
chain: B2 chain with K18R, K24R, K33R
In the case of B12, in experiment [3], the IgG Binding Capacity came out at 58.6 mg/mL gel.

B13: modified product PL-052 of immunoglobulin-binding domain 4 (designed binder)
chain: B2 chain with T13K, K18R, K24R, K33H
For the molecule B13, the IgG Binding Capacity in experiment [3] turned out to be 58.5 mg/mL gel.

B14: modified product PL-035 of immunoglobulin-binding domain 4 (designed binder)
chain: B2 chain with K18R, K24R
In experiment [3], B14 yielded an IgG Binding Capacity of 56.9 mg/mL gel.

B15: modified product PL-057 of immunoglobulin-binding domain 4 (designed binder)
chain: B2 chain with T13K, K18R, K24R, K40R
In experiment [3], B15 had an IgG Binding Capacity of 55.6 mg/mL gel.

B16: modified product PL-044 of immunoglobulin-binding domain 4 (designed binder)
chain: B2 chain with T13K, K33R
B16 gave an IgG Binding Capacity in experiment [3] of 58.9 mg/mL gel.

B17: modified product PL-054 of immunoglobulin-binding domain 4 (designed binder)
chain: B2 chain with T13K, K18R, K24R, K33Q
Molecule B17 came in with an IgG Binding Capacity in experiment [3] of 58.4 mg/mL gel.

B18: modified product PL-047 of immunoglobulin-binding domain 4 (designed binder)
chain: B2 chain with T13K, K24R, K33R
The molecule B18 gave an IgG Binding Capacity in experiment [3] of 59.2 mg/mL gel.

B19: modified product PL-028 of immunoglobulin-binding domain 4 (designed binder)
chain: B2 chain with T13K, K40R, K59R, K78R
In turn, B19 yielded an IgG Binding Capacity in experiment [3] of 60.1 mg/mL gel. Besides, in experiment [5], the increase of binding capacity against PL-014 stood at 5%.

B20: modified product PL-046 of immunoglobulin-binding domain 4 (designed binder)
chain: B2 chain with T13K, K18R, K33R
B20: in experiment [3], the IgG Binding Capacity amounted to 59.7 mg/mL gel.

B21: modified product PL-043 of immunoglobulin-binding domain 4 (designed binder)
chain: B2 chain with T13R
The molecule B21 had an IgG Binding Capacity in experiment [3] of 59.3 mg/mL gel.

B22: modified product PL-059 of immunoglobulin-binding domain 4 (designed binder)
chain: B2 chain with T13K, K18R, K40R
In experiment [3], B22 gave an IgG Binding Capacity of 56.1 mg/mL gel.

B23: modified product PL-051 of immunoglobulin-binding domain 4 (designed binder)
chain: B2 chain with T13K, K18R, K24R, K33L
In turn, B23 yielded an IgG Binding Capacity in experiment [3] of 57.3 mg/mL gel.

B24: modified product PL-045 of immunoglobulin-binding domain 4 (designed binder)
chain: B2 chain with T13R, K33R
Turning to B24, the IgG Binding Capacity in experiment [3] came out at 60.6 mg/mL gel.

B25: modified product PL-036 of immunoglobulin-binding domain 4 (designed binder)
chain: B2 chain with T13K, K18R, K24R, K33R
B25 displayed an IgG Binding Capacity in experiment [3] of 59.1 mg/mL gel.

B26: modified product PL-049 of immunoglobulin-binding domain 4 (designed binder)
chain: B2 chain with T13K, K18R, K24R, K33R, K40R
Molecule B26 gave an IgG Binding Capacity in experiment [3] of 59.7 mg/mL gel.

B27: chimeric protein PL-023 containing immunoglobulin-binding domain 3 of Protein L (designed binder)
chain: B2 chain with T34I, E49K, R52A, D55N, V60E, Y73N
On to B27, for which the IgG Binding Capacity in experiment [3] and in experiment [8] was 52.2 mg/mL gel each time.

B28: modified product PL-050 of immunoglobulin-binding domain 4 (designed binder)
chain: B2 chain with T13K, K18R, K24R, K33T
For B28, the IgG Binding Capacity in experiment [3] turned out to be 59 mg/mL gel.

B29: modified product PL-048 of immunoglobulin-binding domain 4 (designed binder)
chain: B2 chain with T13K, K24R, K33R, K40R
For B29, in experiment [3], the IgG Binding Capacity was 57.9 mg/mL gel.

B30: modified product PL-038 of immunoglobulin-binding domain 4 (designed binder)
chain: B2 chain with T13R, K18R, K24R, K33R, K40R, K59R, K78R
B30 showed an IgG Binding Capacity in experiment [3] of 63.6 mg/mL gel. The increase of binding capacity against PL-014 in experiment [5] is 11%.

B31: tetrameric multidomain polypeptide PL-424 (four linked modified domains of PL-024) (designed binder)
chain: AQHDEAGLALETPEEPREEVTIRVNLIFADGRTQTAEFRGTFEEATAEAYRYADLLARVNGEYTADLEDGGYTINIRFAGALETPEEPREEVTIRVNLIFADGRTQTAEFRGTFEEATAEAYRYADLLARVNGEYTADLEDGGYTINIRFAGALETPEEPREEVTIRVNLIFADGRTQTAEFRGTFEEATAEAYRYADLLARVNGEYTADLEDGGYTINIRFAGALETPEEPREEVTIRVNLIFADGRTQTAEFRGTFEEATAEAYRYADLLARVNGEYTADLEDGGYTINIRFAGALPSKSKKILKEAKKLNKAQAPKKKK
In experiment [3], B31 came in with an IgG Binding Capacity of 91.6 mg/mL gel. This molecule also registered a Fab Binding Capacity in experiment [4] of 72.4 mg/mL gel. This molecule also displayed a human IgG binding capacity relative to PL-024 in experiment [5] of 144%. This molecule also gave an amount of bound IgG relative to Capto L in experiment [6] of 2.2 times. Moreover, in experiment [7], the amount of bound Fab fragment relative to Capto L worked out at 2.4 times.

B32: chimeric protein PL-021 containing immunoglobulin-binding domain 1 of Protein L (designed binder)
chain: MAQHDEAGLALETPEPEEEVTIKANLIFADGSTQNAEFKGTFAKAVSDAYAYADALKKDNGEYTVDVADKGLTLNIKFAGALPSKSKKILKEAKKLNKAQAPKKKK
In turn, B32 came in with an IgG Binding Capacity in experiment [8] of 45.3 mg/mL gel.
